# Assay results reported in the supplement of paper PMC9112550, “Optimization of the antimicrobial peptide Bac7 by deep mutational scanning” (BMC Biology, 2022).
# Tested on: Escherichia coli TOP10
# Experiment: shrunken log2 fold change of peptide-encoding DNA abundance (4.5 h post-induction vs induction); higher = less antimicrobial activity (less host growth inhibition)
# Settings: time post-induction: 4.5 h; library: site-saturation at positions 5, 18, 19, 20
# 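Further: peptides expressed intracellularly from a pBAD plasmid library in pooled LB shake-flask culture, induced with 0.3% L-arabinose, DNA abundance read by NGS, three biological replicates, DESeq2 with apeglm shrinkage.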
row,Sequence,shrunken log2 fold change
1,RRIRGRPPRLPRPRPRPAWHPRP,0.521
2,RRIRYRPPRLPRPRPRPYMDPRP,-0.14
3,RRIRGRPPRLPRPRPRPSCMPRP,0.336
4,RRIRPRPPRLPRPRPRPSKLPRP,-0.224
5,RRIRWRPPRLPRPRPRPTPAPRP,0.584
6,RRIRQRPPRLPRPRPRPVGKPRP,-0.14
7,RRIRWRPPRLPRPRPRPPIVPRP,0.19
8,RRIRQRPPRLPRPRPRPAAKPRP,-0.0272
9,RRIRQRPPRLPRPRPRPELHPRP,0.0795
10,RRIRLRPPRLPRPRPRPMARPRP,0.0339
11,RRIRIRPPRLPRPRPRPMKGPRP,-0.0335
12,RRIRPRPPRLPRPRPRPFITPRP,-0.678
13,RRIRIRPPRLPRPRPRPELEPRP,0.0281
14,RRIRIRPPRLPRPRPRPWGGPRP,0.297
15,RRIRNRPPRLPRPRPRPSCMPRP,-0.755
16,RRIRMRPPRLPRPRPRPWTNPRP,-0.01
17,RRIRNRPPRLPRPRPRPSIYPRP,-0.449
18,RRIRFRPPRLPRPRPRPMGGPRP,-0.166
19,RRIRFRPPRLPRPRPRPPGFPRP,0.268
20,RRIRDRPPRLPRPRPRPSTQPRP,0.445
21,RRIRTRPPRLPRPRPRPDSSPRP,-0.00751
22,RRIRTRPPRLPRPRPRPMHYPRP,-1.41
23,RRIRARPPRLPRPRPRPSKTPRP,0.314
24,RRIRLRPPRLPRPRPRPHATPRP,-0.0435
25,RRIRDRPPRLPRPRPRPEHCPRP,-0.0205

row,Sequence,shrunken log2 fold change
1,RRIRYRPPRLPRPRPRPDIKPRP,-0.602
2,RRIRCRPPRLPRPRPRPKGPPRP,0.348
3,RRIRRRPPRLPRPRPRPYKIPRP,-0.158
4,RRIRTRPPRLPRPRPRPHCEPRP,0.023
5,RRIRQRPPRLPRPRPRPENWPRP,0.284
6,RRIRTRPPRLPRPRPRPNLAPRP,0.0471
7,RRIRWRPPRLPRPRPRPIFAPRP,0.329
8,RRIRDRPPRLPRPRPRPPNCPRP,-0.0514
9,RRIRKRPPRLPRPRPRPNCGPRP,0.0611
10,RRIRYRPPRLPRPRPRPYALPRP,-0.172
11,RRIRIRPPRLPRPRPRPHDKPRP,-0.74
12,RRIRVRPPRLPRPRPRPRAGPRP,0.488
13,RRIRQRPPRLPRPRPRPRGMPRP,0.143
14,RRIRQRPPRLPRPRPRPVCQPRP,-0.0856
15,RRIRKRPPRLPRPRPRPPYDPRP,-0.0658
16,RRIRCRPPRLPRPRPRPPHHPRP,0.352
17,RRIRIRPPRLPRPRPRPNTQPRP,-0.295
18,RRIRIRPPRLPRPRPRPKLGPRP,-0.217
19,RRIRCRPPRLPRPRPRPFHFPRP,-0.954
20,RRIRMRPPRLPRPRPRPSNTPRP,-0.0896
21,RRIRRRPPRLPRPRPRPVGCPRP,0.472
22,RRIRPRPPRLPRPRPRPITWPRP,-0.0578
23,RRIRFRPPRLPRPRPRPKNWPRP,0.31
24,RRIRSRPPRLPRPRPRPYKSPRP,-0.694
25,RRIRSRPPRLPRPRPRPDVFPRP,-0.098

row,Sequence,shrunken log2 fold change
1,RRIRGRPPRLPRPRPRPMGWPRP,0.967
2,RRIRVRPPRLPRPRPRPVILPRP,-0.248
3,RRIRCRPPRLPRPRPRPKKTPRP,-0.142
4,RRIRTRPPRLPRPRPRPMTMPRP,-0.223
5,RRIRLRPPRLPRPRPRPHNRPRP,-0.205
6,RRIRLRPPRLPRPRPRPPALPRP,0.696
7,RRIRVRPPRLPRPRPRPTPLPRP,0.251
8,RRIRPRPPRLPRPRPRPTDKPRP,0.0429
9,RRIRWRPPRLPRPRPRPFTRPRP,-0.00433
10,RRIRTRPPRLPRPRPRPRVNPRP,0.0441
11,RRIRGRPPRLPRPRPRPTGCPRP,0.562
12,RRIRLRPPRLPRPRPRPMGAPRP,0.316
13,RRIRWRPPRLPRPRPRPTSGPRP,0.593
14,RRIRMRPPRLPRPRPRPMYFPRP,0.178
15,RRIRYRPPRLPRPRPRPPEMPRP,0.123
16,RRIRTRPPRLPRPRPRPICMPRP,-0.348
17,RRIRQRPPRLPRPRPRPLLSPRP,0.00947
18,RRIRDRPPRLPRPRPRPQVQPRP,-0.0379
19,RRIRSRPPRLPRPRPRPTWTPRP,0.764
20,RRIRPRPPRLPRPRPRPIYRPRP,-0.158
21,RRIRWRPPRLPRPRPRPCCRPRP,0.174
22,RRIRIRPPRLPRPRPRPCYLPRP,-0.0394
23,RRIRWRPPRLPRPRPRPVSDPRP,0.191
24,RRIRIRPPRLPRPRPRPPCMPRP,-0.169
25,RRIRGRPPRLPRPRPRPCSEPRP,0.0744

row,Sequence,shrunken log2 fold change
1,RRIRHRPPRLPRPRPRPYTSPRP,-0.00159
2,RRIRDRPPRLPRPRPRPMWQPRP,0.00699
3,RRIRLRPPRLPRPRPRPGLSPRP,0.00141
4,RRIRMRPPRLPRPRPRPRRNPRP,0.807
5,RRIRGRPPRLPRPRPRPYRQPRP,-0.401
6,RRIRFRPPRLPRPRPRPYTQPRP,-0.152
7,RRIRFRPPRLPRPRPRPYPSPRP,-0.018
8,RRIRPRPPRLPRPRPRPHYGPRP,-0.569
9,RRIRARPPRLPRPRPRPPVLPRP,0.214
10,RRIRGRPPRLPRPRPRPVDWPRP,1.03
11,RRIRERPPRLPRPRPRPELFPRP,0.201
12,RRIRCRPPRLPRPRPRPDWVPRP,0.0222
13,RRIRDRPPRLPRPRPRPAHPPRP,-0.203
14,RRIRNRPPRLPRPRPRPSKKPRP,-0.0392
15,RRIRWRPPRLPRPRPRPERWPRP,1.14
16,RRIRERPPRLPRPRPRPNTQPRP,-0.187
17,RRIRRRPPRLPRPRPRPLFKPRP,-0.00471
18,RRIRDRPPRLPRPRPRPRYEPRP,0.223
19,RRIRCRPPRLPRPRPRPEPIPRP,-0.0787
20,RRIRSRPPRLPRPRPRPHQIPRP,0.0975
21,RRIRHRPPRLPRPRPRPPSAPRP,0.496
22,RRIRERPPRLPRPRPRPILQPRP,-0.518
23,RRIRMRPPRLPRPRPRPCLQPRP,-0.0178
24,RRIRMRPPRLPRPRPRPQSNPRP,0.0557
25,RRIRSRPPRLPRPRPRPNPDPRP,-0.123

row,Sequence,shrunken log2 fold change
1,RRIRERPPRLPRPRPRPKKHPRP,-0.55
2,RRIRNRPPRLPRPRPRPEMPPRP,-0.0738
3,RRIRFRPPRLPRPRPRPDGRPRP,0.023
4,RRIRFRPPRLPRPRPRPADLPRP,-0.294
5,RRIRERPPRLPRPRPRPERGPRP,0.119
6,RRIRERPPRLPRPRPRPGWKPRP,0.015
7,RRIRCRPPRLPRPRPRPHSKPRP,-0.438
8,RRIRSRPPRLPRPRPRPPMCPRP,0.00128
9,RRIRLRPPRLPRPRPRPHTIPRP,-0.165
10,RRIRPRPPRLPRPRPRPPRQPRP,0.334
11,RRIRLRPPRLPRPRPRPEFKPRP,-0.4
12,RRIRLRPPRLPRPRPRPQKEPRP,0.0466
13,RRIRHRPPRLPRPRPRPDTRPRP,-0.0709
14,RRIRGRPPRLPRPRPRPEYEPRP,0.165
15,RRIRRRPPRLPRPRPRPAYGPRP,0.286
16,RRIRWRPPRLPRPRPRPDMHPRP,0.199
17,RRIRVRPPRLPRPRPRPFWNPRP,-0.00518
18,RRIRDRPPRLPRPRPRPMNYPRP,0.185
19,RRIRARPPRLPRPRPRPCLGPRP,0.0637
20,RRIRFRPPRLPRPRPRPFCNPRP,-0.196
21,RRIRSRPPRLPRPRPRPDQFPRP,-0.167
22,RRIRSRPPRLPRPRPRPYNLPRP,-0.573
23,RRIRFRPPRLPRPRPRPTSIPRP,-0.296
24,RRIRPRPPRLPRPRPRPDSGPRP,0.0463
25,RRIRLRPPRLPRPRPRPHQLPRP,-0.25

row,Sequence,shrunken log2 fold change
1,RRIRQRPPRLPRPRPRPDIKPRP,-0.0227
2,RRIRDRPPRLPRPRPRPDLSPRP,0.0253
3,RRIRKRPPRLPRPRPRPEYVPRP,-0.00396
4,RRIRWRPPRLPRPRPRPREDPRP,0.532
5,RRIRERPPRLPRPRPRPFPVPRP,-0.214
6,RRIRRRPPRLPRPRPRPNQGPRP,0.134
7,RRIRDRPPRLPRPRPRPSFEPRP,0.495
8,RRIRQRPPRLPRPRPRPGFWPRP,0.353
9,RRIRQRPPRLPRPRPRPTTCPRP,0.106
10,RRIRVRPPRLPRPRPRPKWLPRP,0.0936
11,RRIRRRPPRLPRPRPRPQIYPRP,-0.1
12,RRIRARPPRLPRPRPRPTDHPRP,0.0934
13,RRIRPRPPRLPRPRPRPGFNPRP,-0.173
14,RRIRMRPPRLPRPRPRPMYLPRP,-0.0638
15,RRIRERPPRLPRPRPRPYGWPRP,-0.135
16,RRIRTRPPRLPRPRPRPGTPPRP,0.0833
17,RRIRRRPPRLPRPRPRPGPLPRP,0.415
18,RRIRIRPPRLPRPRPRPDEPPRP,0.115
19,RRIRTRPPRLPRPRPRPMMGPRP,-0.1
20,RRIRPRPPRLPRPRPRPLKTPRP,-0.000587
21,RRIRWRPPRLPRPRPRPPKLPRP,0.152
22,RRIRERPPRLPRPRPRPGDSPRP,-1.02
23,RRIRCRPPRLPRPRPRPHCHPRP,-0.475
24,RRIRWRPPRLPRPRPRPYNMPRP,-0.883
25,RRIRERPPRLPRPRPRPAMVPRP,0.037
